Test results taken from paper PMC12871931, “The importin‐alpha superfamily engages in ethylene signaling by shuttling ETHYLENE INSENSITIVE 2 from the endoplasmic reticulum to the nucleus” (The Febs Journal, 2025).

Target: TAMRA‐NOP‐1 (EIN2 NLS peptide, N‐terminally labeled with 5‐TAMRA) (Arabidopsis thaliana)
Assay: fluorescence polarisation; direct titration: TAMRA-NOP-1 constant at 250 nM, IMPα protein concentration varied; 50 μL samples; LS55 spectrometer; Kd by Logistic Fit in Origin; three independent measurements

Kd [µM] | Substance
3 | IMPα7_ΔIBB (importin α7 lacking the N-terminal importin β binding domain), Arabidopsis thaliana, recombinant (domain or fragment)
3.2 | ΔIBB_IMPα1 (importin α1 lacking the IBB domain), Arabidopsis thaliana, recombinant (domain or fragment)
